B1: LCOR (parent)
chain: YKVKERLGTLKNPPKKKMKLMSG
B2: FAM189A2 (parent)
chain: NLAGFILGCQGAQFVSSVPRCDLV

Variants of: B1
Assay: protein stability index of a GFP-peptide fusion (GPS, HEK-293T) (PSI 1-6); higher = more stable
Conditions: c terminus: native
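Further: lentivirally expressed fusions sorted by FACS into six bins by GFP to DsRed ratio, PSI derived from sequencing read proportions per bin multiplied by bin number.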

Row | Variant | protein stability index
1 | R6K | 1.11
2 | R6L | 1.84
3 | R6P | 2.47
4 | R6G | 2.21
5 | R6C | 4.96
6 | R6S | 3.27
7 | R6M | 2.5
8 | R6Q | 2.16
9 | R6T | 1.72
10 | K19I | 3.48
11 | K19W | 2.52
12 | K19Q | 3.03
13 | K19D | 2.64
14 | K19G | 1.34
15 | K19T | 2.38
16 | K19V | 2.77
17 | K19P | 2.26
18 | K19A | 3.4
19 | Y1M | 1.93
20 | Y1N | 1.9
21 | Y1G | 1.2
22 | Y1E | 2.15
23 | Y1A | 2.34
24 | Y1V | 2.05
25 | Y1P | 1.72

Row | Variant | protein stability index
26 | Y1K | 1.54
27 | Y1D | 2.03
28 | Y1L | 2.59
29 | Y1W | 2.2
30 | G8Y | 2.08
31 | G8S | 1.76
32 | G8L | 2.22
33 | G8N | 1.27
34 | G8V | 2.33
35 | G8E | 2.72
36 | G8P | 3.05
37 | G8I | 1.12
38 | G8M | 1.69
39 | G8A | 1.85
40 | G8H | 1.92
41 | T9R | 1.81
42 | T9G | 1.23
43 | T9N | 2.45
44 | T9A | 1.96
45 | T9H | 2.33
46 | T9W | 3.03
47 | T9V | 2.35
48 | T9K | 2.06
49 | T9I | 1.5
50 | T9C | 2.2

Row | Variant | protein stability index
51 | K17W | 1.83
52 | K17Y | 2.25
53 | K17Q | 2.96
54 | K17A | 2.41
55 | K17L | 1.34
56 | K17T | 1.76
57 | K17D | 1.83
58 | K17F | 2.02
59 | K17S | 1.42
60 | K17P | 2.59
61 | K17V | 1.68
62 | M18L | 1.81
63 | M18G | 2.59
64 | M18F | 1.98
65 | M18V | 2
66 | M18S | 1.52
67 | M18N | 2.06
68 | M18H | 2.03
69 | M18Y | 2.43
70 | M18D | 3
71 | M18Q | 2.23
72 | M18W | 1.36
73 | K15N | 2.34
74 | K15D | 2.06
75 | K15E | 2.66

Row | Variant | protein stability index
76 | K15W | 3.79
77 | K15R | 2.04
78 | K15Q | 1.84
79 | K15H | 2.34
80 | K15L | 1.58
81 | K15I | 3.63
82 | G23R | 2.88
83 | G23V | 2.11
84 | G23F | 2.15
85 | G23H | 3.01
86 | G23L | 2.75
87 | G23A | 2.29
88 | G23D | 4.01
89 | G23C | 2.57
90 | G23Q | 2.78
91 | G23T | 3
92 | G23W | 2.19
93 | G23N | 2.43
94 | G23K | 3.41
95 | G23S | 3
96 | G23Y | 2.57
97 | G23E | 3.19
98 | L7D | 2.56
99 | L7N | 2.53
100 | L7H | 1.84

Row | Variant | protein stability index
101 | L7W | 1.76
102 | L7M | 1.37
103 | L7E | 2.04
104 | L7Y | 1.53
105 | L7R | 1.06
106 | L7C | 2.75
107 | L7F | 1.5
108 | L7Q | 1.52
109 | L7A | 2.49
110 | L7K | 1.98
111 | L20Q | 3.83
112 | L20P | 3.94
113 | L20V | 2.81
114 | L20A | 3.14
115 | L20I | 2.9
116 | L20Y | 2.18
117 | L20N | 2.43
118 | L20S | 3.02
119 | L20H | 3.95
120 | L20D | 3.66
121 | L20M | 1.55
122 | L20T | 2.32
123 | P14L | 1.32
124 | P14N | 1.49
125 | P14C | 2.14

Row | Variant | protein stability index
126 | P14G | 3.94
127 | P14E | 1.37
128 | P14D | 1.71
129 | K16P | 1.93
130 | K16L | 2.34
131 | K16D | 2.35
132 | K16E | 2.83
133 | K16C | 1.15
134 | K16M | 1.49
135 | K16T | 1.78
136 | K16W | 2.45
137 | K16R | 2.55
138 | K16G | 2.57
139 | K2N | 1.45
140 | K2I | 1.72
141 | K2Y | 2.37
142 | K2V | 3.04
143 | K2W | 3.46
144 | K2A | 1.48
145 | N12M | 1.26
146 | N12V | 1.86
147 | N12D | 1.65
148 | N12K | 2.25
149 | N12C | 3.3
150 | N12S | 1.72

Row | Variant | protein stability index
151 | N12F | 1.86
152 | N12E | 1.61
153 | S22P | 2.45
154 | S22F | 2.44
155 | S22V | 2.09
156 | S22N | 2.11
157 | S22L | 2.19
158 | S22Y | 2.65
159 | S22D | 3.1
160 | S22T | 2.42
161 | S22E | 2.58
162 | E5W | 3.07
163 | E5R | 1.95
164 | E5G | 2.44
165 | E5P | 2.25
166 | E5I | 1.75
167 | E5Q | 1.22
168 | E5T | 2.22
169 | E5N | 1.25
170 | E5D | 1.78
171 | V3H | 1.89
172 | V3G | 1.67
173 | V3E | 2.08
174 | V3R | 2.51
175 | V3S | 1.92

Row | Variant | protein stability index
176 | V3Y | 1.69
177 | V3P | 2.27
178 | V3T | 1.91
179 | V3K | 1.98
180 | V3M | 2.46
181 | V3W | 3.38
182 | K11D | 1.76
183 | K11H | 1.79
184 | K11Y | 2.48
185 | K11M | 3.04
186 | K11S | 1.55
187 | K11G | 3.44
188 | K11Q | 1.44
189 | K11N | 2.29
190 | P13G | 1.5
191 | P13H | 2.49
192 | P13S | 2.09
193 | P13V | 1.98
194 | P13K | 3.2
195 | P13L | 2.02
196 | P13D | 1.93
197 | P13N | 2.05
198 | P13Q | 1.76
199 | P13I | 2.27
200 | K4A | 1.88

Row | Variant | protein stability index
201 | K4W | 3.3
202 | K4Y | 2.3
203 | K4Q | 1.88
204 | K4H | 2.52
205 | K4N | 2.97
206 | K4D | 1.45
207 | L10P | 1.42
208 | L10T | 2.52
209 | L10Q | 1.52
210 | L10M | 2.8
211 | L10Y | 3.47
212 | L10I | 1.5
213 | L10D | 1.86
214 | L10W | 2.42
215 | L10H | 1.85
216 | L10R | 2.23
217 | L10N | 2.85
218 | M21S | 1.45
219 | M21H | 3.33
220 | M21I | 1.92
221 | M21N | 5.95
222 | M21L | 3.01
223 | M21G | 2.91

Variants of: B2
Assay: as above
Conditions: c terminus: a fixed tail appended

Row | Variant | protein stability index
224 | P19T | 3.3
225 | P19C | 3.7
226 | Q10D | 3.6
227 | Q10I | 2.87
228 | Q10R | 2.51
229 | Q10P | 4.29
230 | S16Y | 4.96
231 | S16W | 3.86
232 | S16E | 2.21
233 | S16N | 1.72
234 | S16I | 3.41
235 | F14R | 1.27
236 | F14M | 2.71
237 | F14T | 1.27
238 | F14A | 1.29
239 | D22G | 1.75
240 | V15Q | 3.5
241 | V15R | 1.75
242 | S17W | 3.85
243 | S17T | 1.97
244 | S17I | 1.39
245 | S17E | 2.31
246 | S17K | 2.33

Row | Variant | protein stability index
247 | S17Y | 3.35
248 | S17R | 2.1
249 | S17H | 3.37
250 | S17Q | 2.31
251 | A3Q | 1.03
252 | A3R | 1.72
253 | A3W | 3.4
254 | A3Y | 3.97
255 | A3N | 4.16
256 | A3M | 3.4
257 | A3F | 2.77
258 | F5M | 1.7
259 | F5G | 1.5
260 | F5E | 2.18
261 | F5H | 2.71
262 | I6A | 1.46
263 | I6H | 1.64
264 | I6D | 2.68
265 | I6Y | 2.26
266 | I6N | 2.11
267 | I6K | 2.29
268 | L7H | 1.73
269 | L7P | 1.43

Row | Variant | protein stability index
270 | L7E | 1.77
271 | L7S | 2.02
272 | L7M | 2
273 | L7F | 2.51
274 | C21Q | 2.07
275 | C21K | 3.12
276 | C21A | 2.57
277 | C21N | 2.79
278 | C21T | 2.56
279 | V18N | 2.59
280 | V18G | 1.61
281 | V18F | 2.54
282 | G8W | 2.45
283 | G8K | 3.72
284 | G8Y | 3.33
285 | G8D | 2.19
286 | G8P | 2.03
287 | L23F | 3.42
288 | L23N | 2.75
289 | L23W | 3.69
290 | L23Y | 2.52
291 | L23R | 1.58
292 | L23C | 3.66

Row | Variant | protein stability index
293 | N1Q | 1.85
294 | N1K | 2.77
295 | N1W | 3.42
296 | N1P | 2.63
297 | N1A | 3.77
298 | N1G | 1.51
299 | Q13D | 2.27
300 | Q13A | 4.08
301 | Q13P | 2.31
302 | Q13T | 3.16
303 | V24E | 2.23
304 | V24Q | 2.26
305 | V24C | 3.68
306 | V24S | 2.12
307 | V24P | 2.59
308 | R20E | 1.96
309 | R20P | 2.2
310 | R20L | 1.87
311 | R20H | 3.48
312 | R20I | 2.15
313 | G4F | 2.45
314 | G4T | 3.08
315 | G4P | 3.65

Row | Variant | protein stability index
316 | G4D | 2.36
317 | L2F | 2.65
318 | L2I | 3.93
319 | L2K | 2.67
320 | L2Q | 3.01
321 | L2C | 1.31
322 | A12W | 2.15
323 | A12H | 1.03
324 | A12F | 2.91
325 | A12C | 2.54
326 | A12D | 4.07
327 | G11W | 3.48
328 | G11I | 3.71
329 | G11P | 3.59
330 | G11Y | 3.45
331 | C9E | 2.54
332 | C9A | 2.62
333 | C9K | 1.74
334 | C9P | 1.11

Reference: the supplement of paper PMC10567573
